According to the RNAGym collection of RNA variant scans (doi:10.1073/pnas.2313332121):
This sample holds only a part of the variants without activity.

B1: TPR 5TU (parent)
chain: GGAUCUUCUCGAUCUAACAAAAAAGACAAAUCUGCCACAAAGCUUGAGAGCAUCUUCGGAUGCAGAGGCGGCAGCCUUCGGUGGCGCGAUAGCGCCAACGUUCUCAACUAUGACACGCAAAACGCGUGCUCCGUUGAAUGGAGUUUAUCAUG

Variants of: B1
Assay: polymerase ribozyme fitness, log enrichment relative to wild type (log ratio); higher = more active; in vitro selection for triplet polymerase activity
Procedure, shortened: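 Fitness compares each genotype's enrichment to that of the wild type on a logarithmic scale, averaging replicates with inverse-variance weights. The logarithm is base 2. Enrichment came from Illumina sequencing of input and output libraries after one triplicate round of in vitro selection, which included frozen incubation at −7 °C, of PCR-built, transcribed mutant libraries of each subunit of a heterodimeric triplet polymerase ribozyme. Only genotypes with ≥10 input reads and ≥1 read per output were kept.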

A30U A37C G50C A91G A150G and A30U C35U G141U cannot be ordered by “polymerase ribozyme fitness (log ratio)” value: no more than -4.2 for the first, no more than -4.2 for the second.

A30U U55A G59A G70A C96G A97G and A30U A41C G70C C93G cannot be ordered by “polymerase ribozyme fitness (log ratio)” value: no more than -4.2 for the first, no more than -4.2 for the second.

A29U C32A A41U G71C C85U C87U A98C and A30U U61G G68A C93U C103G A147C cannot be ordered by “polymerase ribozyme fitness (log ratio)” value: no more than -4.2 for the first, no more than -4.2 for the second.

A30U A52U U78A and A30C G68A C87U A106U A120G cannot be ordered by “polymerase ribozyme fitness (log ratio)” value: no more than -4.2 for the first, no more than -4.2 for the second.

A29G A49C G67A C114U U127G and A30G C87U U101A U109C A115U A120U A122U U145G G152A cannot be ordered by “polymerase ribozyme fitness (log ratio)” value: no more than -4.2 for the first, no more than -4.2 for the second.

First: A30G G48U G86U C149U
Second: A30G G92U A98U
The “polymerase ribozyme fitness (log ratio)” value of the first is lower: no more than -4.2 for the first, -3.79 for the second.

First: A29U C99A
Second: A29G C57A G58U C95U C125G
The “polymerase ribozyme fitness (log ratio)” value of the first is higher: -4.17 for the first, no more than -4.2 for the second.

Going from A29U C87U A122U U145C to A29G A60C G80A A121U G141U, the “polymerase ribozyme fitness (log ratio)” value falls from -3.85 to no more than -4.2.

A30U C43G and A30G G46U G68U A147C cannot be ordered by “polymerase ribozyme fitness (log ratio)” value: no more than -4.2 for the first, no more than -4.2 for the second.

A29U A41U C69U C95A C118G C125U U148A and A29U C51A G94A cannot be ordered by “polymerase ribozyme fitness (log ratio)” value: no more than -4.2 for the first, no more than -4.2 for the second.

A30G U53A G62U A64G and A29U G59C G62U C95U C116A cannot be ordered by “polymerase ribozyme fitness (log ratio)” value: no more than -4.2 for the first, no more than -4.2 for the second.

A29U A39U U55A C79A C93G and A30U A52U C93A cannot be ordered by “polymerase ribozyme fitness (log ratio)” value: no more than -4.2 for the first, no more than -4.2 for the second.

A29U A73G C93A G128U G140U and A29U G92A A142C cannot be ordered by “polymerase ribozyme fitness (log ratio)” value: no more than -4.2 for the first, no more than -4.2 for the second.

First: A29G C76U G92A C123G G143U
Second: A30U A106G
The “polymerase ribozyme fitness (log ratio)” value of the first is lower: no more than -4.2 for the first, -2.9 for the second.

A30C C79A G88A A107G C116G A137G U144C and A30U G42A C85U A89G C99A A107C A122U C125A U144C C149A cannot be ordered by “polymerase ribozyme fitness (log ratio)” value: no more than -4.2 for the first, no more than -4.2 for the second.

A30C G59C A60C C93A C99U C114A and A29C U44A A52U G58A C118A cannot be ordered by “polymerase ribozyme fitness (log ratio)” value: no more than -4.2 for the first, no more than -4.2 for the second.

A30U C54U C85A G128C G140U G141A and A29G C35G G84C G100A cannot be ordered by “polymerase ribozyme fitness (log ratio)” value: no more than -4.2 for the first, no more than -4.2 for the second.

A29G U31A C43G and A29G A41C A60U C85G G86U C116G G133C A142G A150G cannot be ordered by “polymerase ribozyme fitness (log ratio)” value: no more than -4.2 for the first, no more than -4.2 for the second.

A29U G46U G59A G70A A89U G117U U148A and A29U G58C G84A C105U A113C cannot be ordered by “polymerase ribozyme fitness (log ratio)” value: no more than -4.2 for the first, no more than -4.2 for the second.

A30U C32U G48A C51U U56G C76U and A30G C75A G94U A137C G143U A150U cannot be ordered by “polymerase ribozyme fitness (log ratio)” value: no more than -4.2 for the first, no more than -4.2 for the second.

A30C C76A G83C and A30C G92C G126A cannot be ordered by “polymerase ribozyme fitness (log ratio)” value: no more than -4.2 for the first, no more than -4.2 for the second.

A29G G50A G80U A91C U134A U146C and A30C A142C U144C cannot be ordered by “polymerase ribozyme fitness (log ratio)” value: no more than -4.2 for the first, no more than -4.2 for the second.

A29U G68A G83A C103G and A30U A49G A52G G58C U78A A110U C123U A142C cannot be ordered by “polymerase ribozyme fitness (log ratio)” value: no more than -4.2 for the first, no more than -4.2 for the second.

Going from A29U C35G C95G to A29G A30C G86U A137U, the “polymerase ribozyme fitness (log ratio)” value falls from -4.03 to no more than -4.2.

A30C A47G G70U U102G G126U G152U and A29U A66U C79A G83A C96A A142U cannot be ordered by “polymerase ribozyme fitness (log ratio)” value: no more than -4.2 for the first, no more than -4.2 for the second.

A29U G86A C87U C105A C116A U146A and A29G C51U C96G cannot be ordered by “polymerase ribozyme fitness (log ratio)” value: no more than -4.2 for the first, no more than -4.2 for the second.

First: A29U C32U G62A G67U C75G U82G A142U A150G
Second: A30U C38G G50C C87G G117A
The “polymerase ribozyme fitness (log ratio)” value of the first is higher: -3.64 for the first, no more than -4.2 for the second.

Going from A30U C38U to A30U A66U C85U A106C, the “polymerase ribozyme fitness (log ratio)” value falls from -3.76 to no more than -4.2.

A30G A47C G48A and A30U U44A C85A A110C U111C cannot be ordered by “polymerase ribozyme fitness (log ratio)” value: no more than -4.2 for the first, no more than -4.2 for the second.

A30U A49C A60U U77C U148A and A29U U45G G86C U148A cannot be ordered by “polymerase ribozyme fitness (log ratio)” value: no more than -4.2 for the first, no more than -4.2 for the second.

A30C G81C A138G U146A C149U and A29U U55A A60G G86A U130C cannot be ordered by “polymerase ribozyme fitness (log ratio)” value: no more than -4.2 for the first, no more than -4.2 for the second.

A29U G65A C87A A91C U109G and A29G A60G G92C C116G A121G cannot be ordered by “polymerase ribozyme fitness (log ratio)” value: no more than -4.2 for the first, no more than -4.2 for the second.

First: A30G G58U C118U
Second: A29U G59C U82A C93U
The “polymerase ribozyme fitness (log ratio)” value of the first is higher: -3.95 for the first, no more than -4.2 for the second.

A30U U55A G74A C79U C87A C116A and A30C C93A A97G cannot be ordered by “polymerase ribozyme fitness (log ratio)” value: no more than -4.2 for the first, no more than -4.2 for the second.

A30G C54U G80U A91C C103U and A29G U33C G141A U145A cannot be ordered by “polymerase ribozyme fitness (log ratio)” value: no more than -4.2 for the first, no more than -4.2 for the second.

A29G C51G U56A C93A C95G C149G G152A and A30C G62U U90G C95A G124A A138C U151C cannot be ordered by “polymerase ribozyme fitness (log ratio)” value: no more than -4.2 for the first, no more than -4.2 for the second.

A29G A47C U55G and A29U C63U C114U cannot be ordered by “polymerase ribozyme fitness (log ratio)” value: no more than -4.2 for the first, no more than -4.2 for the second.

A29U U31G A47C U61A G81A C95U G100U and A29G G58C A73U G92C A98G C125A cannot be ordered by “polymerase ribozyme fitness (log ratio)” value: no more than -4.2 for the first, no more than -4.2 for the second.

A29U A41U A47C C114G C132U and A29U A41U U53G G88U A89G G117A cannot be ordered by “polymerase ribozyme fitness (log ratio)” value: no more than -4.2 for the first, no more than -4.2 for the second.

A29C U53A A73C G84C C103G A107U U134G and A30U A52G G58A G70U C79U G83A C93U cannot be ordered by “polymerase ribozyme fitness (log ratio)” value: no more than -4.2 for the first, no more than -4.2 for the second.

Compared with A30U C32G U55G G74A A89G C93A G133U A142C, A29G G42A G81A C85U is higher in “polymerase ribozyme fitness (log ratio)” value: no more than -4.2 for the first, -4.09 for the second.

With A30U U82A C85A U104A the “polymerase ribozyme fitness (log ratio)” value was no more than -4.2.
